Data published in US6500417 (DSM N V, dated 2002).
Where a chain is given by its changes, count along the chain named. Each block holds one molecule with its values, some of them ahead of it.

How the values were obtained:
IL-3 receptor (human) = IL-3 receptor (human) (UniProt P26951); experiment: cell-based or functional assay
IL-3 receptor [1] = target: T1, IL-3 receptor (human, UniProt P26951 19-378; P32927 17-897); experiment: competition with radiolabeled IL-3 for binding to cells; NC: No competition was observed for the particular mutein preparation
T1 construct: whole, on cells; also called ILK3 receptor
Method: (§1) An ILK3 receptor binding assay was performed with purified recombinant hIL-3 (see EPA 0390252) was radiolabeled with the Bolton-Hunter reagent (as described by Budel et al., Blood 74 (1989) 565–571). The specific activity was estimated at 80,000 cpm/ng of IL-3. As target, either donor leukocytes, patient AML cells, or MV4-11 (ATCC: CRL-9591) cells were used. Cells were washed in Hanks Balanced Salt solution and suspended in Alpha-MEM plus 1% BSA. Usually, 3–10×10⁶ cells were incubated with 200–300 pM of radiolabeled IL-3 and various concentrations of unlabeled mutant protein in a total volume of 200 µl for 1 hr at 37° C. Cell-bound labeled IL-3 was centrifuged for 10 min at 1000×g at 4° C. through a 0.5 ml cushion of bovine calf serum in an Eppendorf tube (Budel et al., 1989). The tubes were frozen in liquid nitrogen and the tips cut off for counting in a Packard gamma counter. Competition binding was determined relative to the reference preparation. […] Radiolabeled IL-3 binding to patient AML blasts is competed with unlabeled IL-3 protein (reference preparation). Due to the low number of receptors (less than 200) on the target cells, data for competition mostly varied by one order of magnitude.

IL-3 receptor [2] = target: T1, IL-3 receptor; experiment: cell-based or functional assay
IL-3 receptor [3] = target: T1, IL-3 receptor; experiment: receptor binding assay on cells
IL-3 receptor [4] = target: T1, IL-3 receptor; experiment: competition with radiolabeled hIL-3 for binding to cells, relative to reference IL-3
Method: as §1

IL-3 receptor [5] = target: T1, IL-3 receptor; experiment: competition with radiolabeled hIL-3 for binding to cells, relative to reference IL-3; done once
Method: as §1
[1]Deletion between amino acid numbers of mature human IL-3 is indicated. Substitutions of amino acids are indicated in single letter code. [2]Median specific biological activity is expressed relative to the reference IL-3 preparations. [3]Antagonistic potential is represented as relative receptor binding activity divided by relative biological activity. The range is presented between brackets. […] Muteins were diluted in medium and tested for biological activity. Receptor binding experiments were performed once. †Mutein protein concentration was too low for densitometric scanning and was estimated from gels and western blots. ¤Mutant proteins were expressed in Bacillus and lack a leader polypeptide sequence.

T1 sequence (P26951 19-378, chain 1 of 2): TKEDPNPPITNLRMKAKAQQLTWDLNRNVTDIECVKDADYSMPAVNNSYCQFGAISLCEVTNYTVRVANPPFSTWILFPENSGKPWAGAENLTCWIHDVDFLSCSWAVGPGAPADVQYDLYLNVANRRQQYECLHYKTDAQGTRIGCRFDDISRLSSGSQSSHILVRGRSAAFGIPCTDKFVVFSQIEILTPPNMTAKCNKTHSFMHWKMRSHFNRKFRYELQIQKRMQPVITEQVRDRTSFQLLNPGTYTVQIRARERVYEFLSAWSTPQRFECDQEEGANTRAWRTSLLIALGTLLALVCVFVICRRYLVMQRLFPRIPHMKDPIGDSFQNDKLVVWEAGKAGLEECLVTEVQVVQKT
T1 sequence (P32927 17-897, chain 2 of 2): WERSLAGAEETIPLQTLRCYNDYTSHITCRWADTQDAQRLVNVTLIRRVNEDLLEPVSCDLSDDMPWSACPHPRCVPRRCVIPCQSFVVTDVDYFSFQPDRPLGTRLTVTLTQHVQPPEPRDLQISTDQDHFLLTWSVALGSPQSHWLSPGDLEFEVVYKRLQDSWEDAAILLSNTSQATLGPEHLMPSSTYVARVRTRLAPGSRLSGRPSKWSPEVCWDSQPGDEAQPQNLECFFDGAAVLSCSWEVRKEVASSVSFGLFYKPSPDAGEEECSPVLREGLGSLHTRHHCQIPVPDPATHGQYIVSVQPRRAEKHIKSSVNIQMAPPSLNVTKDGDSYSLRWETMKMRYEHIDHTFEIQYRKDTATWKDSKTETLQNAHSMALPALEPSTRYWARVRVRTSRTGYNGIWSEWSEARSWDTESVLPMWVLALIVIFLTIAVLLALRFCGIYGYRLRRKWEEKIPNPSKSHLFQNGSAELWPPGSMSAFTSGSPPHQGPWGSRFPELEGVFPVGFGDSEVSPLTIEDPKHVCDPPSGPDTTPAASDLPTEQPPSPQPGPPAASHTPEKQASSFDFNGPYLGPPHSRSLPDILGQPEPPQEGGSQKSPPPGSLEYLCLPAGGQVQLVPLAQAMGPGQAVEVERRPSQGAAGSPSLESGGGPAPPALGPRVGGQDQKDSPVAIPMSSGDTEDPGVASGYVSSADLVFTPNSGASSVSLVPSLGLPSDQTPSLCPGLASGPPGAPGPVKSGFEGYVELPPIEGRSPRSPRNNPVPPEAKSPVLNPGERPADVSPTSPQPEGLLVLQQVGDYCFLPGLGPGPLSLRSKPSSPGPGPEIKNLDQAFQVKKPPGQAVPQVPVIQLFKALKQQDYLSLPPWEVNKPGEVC
Chain of IL-3 receptor (human) (P26951 19-378, chain 1 of 2): as the sequence (P26951 19-378, chain 1 of 2) above
Chain of IL-3 receptor (human) (P32927 17-897, chain 2 of 2, further chain): as the sequence (P32927 17-897, chain 2 of 2) above

Molecule: hIL-3 substitution mutant 1489 (Arg94→Pro94) (from UniProt P08700 20-152) (ligand)
REL. SPEC. BIOLOGICAL ACTIVITY (DNA synthesis of AML193 cells) (relative to reference IL-3) (IL-3 receptor (human)): 0.0017

B1: hIL-3 deletion mutant 821 (deletion 94-102) (ligand)
chain: APMTQTTPLKTSWVNCSNMIDEIITHLKQPPLPLLDFNNLNGEDQDILMENNLRRPNLEAFNRAVKSLQNASAIESILKNLLPCLPLATAAPTDWNEFRRKLTFYLKTLENAQAQQTTLSLAIF
notes: not shown: heterologous N-terminal leader of the E. coli fusion (pGB/IL-336: 12 aa; pGB/IL-339: 15 aa)
binding result (IL-3 receptor [1]): no binding
REL. SPEC. BIOLOGICAL ACTIVITY (DNA synthesis of AML193 cells) (IL-3 receptor [2]): 1.8e-05 relative to reference IL-3

B4: hIL-3 C-terminal deletion mutant 1455 (lacking amino acids 130-133) (ligand)
chain: APMTQTTPLKTSWVNCSNMIDEIITHLKQPPLPLLDFNNLNGEDQDILMENNLRRPNLEAFNRAVKSLQNASAIESILKNLLPCLPLATAAPTRHPIHIKDGDWNEFRRKLTFYLKTLENAQAQQTTLS
binding activity retained (IL-3 receptor [3]): 100 percent

B8: hIL-3 deletion mutant 932 (deletion 1-14) (ligand)
chain: NCSNMIDEIITHLKQPPLPLLDFNNLNGEDQDILMENNLRRPNLEAFNRAVKSLQNASAIESILKNLLPCLPLATAAPTRHPIHIKDGDWNEFRRKLTFYLKTLENAQAQQTTLSLAIF
notes: as for B1
relative antagonistic potential (relative receptor binding activity / relative biological activity) (IL-3 receptor [4]): 2.8
binding activity retained (IL-3 receptor [3]): 100 percent
REL. SPEC. BIOLOGICAL ACTIVITY (DNA synthesis of AML193 cells) (IL-3 receptor [2]): 0.71 relative to reference IL-3

B9: hIL-3 substitution mutant 1480 (Asp36→Arg36) (ligand)
chain: APMTQTTPLKTSWVNCSNMIDEIITHLKQPPLPLLRFNNLNGEDQDILMENNLRRPNLEAFNRAVKSLQNASAIESILKNLLPCLPLATAAPTRHPIHIKDGDWNEFRRKLTFYLKTLENAQAQQTTLSLAIF
notes: also called 36D→R; not shown: heterologous N-terminal leader of the E. coli fusion (pGB/IL-336: 12 aa; pGB/IL-339: 15 aa)
relative antagonistic potential (relative receptor binding activity / relative biological activity) (IL-3 receptor [5]): 12
REL. SPEC. BIOLOGICAL ACTIVITY (DNA synthesis of AML193 cells) (IL-3 receptor [2]): 0.0031 relative to reference IL-3

B10: hIL-3 substitution mutant 1491 (Glu106→Lys106) (ligand)
chain: B9 chain with R36D, E106K
notes: also called 106E → K; not shown: heterologous N-terminal leader of the E. coli fusion (pGB/IL-336: 12 aa; pGB/IL-339: 15 aa)
relative antagonistic potential (relative receptor binding activity / relative biological activity) (IL-3 receptor [5]): 6
REL. SPEC. BIOLOGICAL ACTIVITY (DNA synthesis of AML193 cells) (IL-3 receptor [2]): 0.00032 relative to reference IL-3

B11: hIL-3 substitution mutant 1482 (Asp46→Arg46) (ligand)
chain: B9 chain with R36D, D46R
notes: also called 46D→R; not shown: heterologous N-terminal leader of the E. coli fusion (pGB/IL-336: 12 aa; pGB/IL-339: 15 aa)
relative antagonistic potential (relative receptor binding activity / relative biological activity) (IL-3 receptor [5]): 0.6
REL. SPEC. BIOLOGICAL ACTIVITY (DNA synthesis of AML193 cells) (IL-3 receptor [2]): 0.0075 relative to reference IL-3

B12: hIL-3 substitution mutant 1490 (His98Lys100Asp101→Glu98Asp100Gln101) (ligand)
chain: B9 chain with R36D, H98E, K100D, D101Q
notes: also called 98HIKD → EIKQ; not shown: heterologous N-terminal leader of the E. coli fusion (pGB/IL-336: 12 aa; pGB/IL-339: 15 aa)
relative antagonistic potential (relative receptor binding activity / relative biological activity) (IL-3 receptor [5]): 5
REL. SPEC. BIOLOGICAL ACTIVITY (DNA synthesis of AML193 cells) (IL-3 receptor [2]): 0.0022 relative to reference IL-3

B13: hIL-3 substitution mutant 1487A (Glu75→Gly75) (ligand)
chain: B9 chain with R36D, E75G
notes: also called 75E → G; not shown: heterologous N-terminal leader of the E. coli fusion (pGB/IL-336: 12 aa; pGB/IL-339: 15 aa)
relative antagonistic potential (relative receptor binding activity / relative biological activity) (IL-3 receptor [5]): 3
REL. SPEC. BIOLOGICAL ACTIVITY (DNA synthesis of AML193 cells) (IL-3 receptor [2]): 0.015 relative to reference IL-3

B14: hIL-3 substitution mutant 1487B (Glu75→Arg75) (ligand)
chain: B9 chain with R36D, E75R
notes: also called 75E → R; not shown: heterologous N-terminal leader of the E. coli fusion (pGB/IL-336: 12 aa; pGB/IL-339: 15 aa)
relative antagonistic potential (relative receptor binding activity / relative biological activity) (IL-3 receptor [5]): 3
REL. SPEC. BIOLOGICAL ACTIVITY (DNA synthesis of AML193 cells) (IL-3 receptor [2]): 0.0086 relative to reference IL-3

B15: hIL-3 substitution mutant 1485 (Glu59→Lys59) (ligand)
chain: B9 chain with R36D, E59K
notes: also called 59E → K; not shown: heterologous N-terminal leader of the E. coli fusion (pGB/IL-336: 12 aa; pGB/IL-339: 15 aa)
relative antagonistic potential (relative receptor binding activity / relative biological activity) (IL-3 receptor [5]): 3
REL. SPEC. BIOLOGICAL ACTIVITY (DNA synthesis of AML193 cells) (IL-3 receptor [2]): 0.011 relative to reference IL-3

B18: hIL-3 double deletion mutant 9329 (deletions 1-14/120-130) (ligand)
chain: NCSNMIDEIITHLKQPPLPLLDFNNLNGEDQDILMENNLRRPNLEAFNRAVKSLQNASAIESILKNLLPCLPLATAAPTRHPIHIKDGDWNEFRRKLTFYLKTLEAIF
notes: not shown: heterologous N-terminal leader of the E. coli fusion, rebuilt with oligonucleotides 1424/1425
relative antagonistic potential (relative receptor binding activity / relative biological activity) (IL-3 receptor [4]): 2
binding activity retained (IL-3 receptor [3]): 100 percent
REL. SPEC. BIOLOGICAL ACTIVITY (DNA synthesis of AML193 cells) (IL-3 receptor [2]): 0.4 relative to reference IL-3

B19: hIL-3 deletion mutant 939 (deletion 120-130) (ligand)
chain: APMTQTTPLKTSWVNCSNMIDEIITHLKQPPLPLLDFNNLNGEDQDILMENNLRRPNLEAFNRAVKSLQNASAIESILKNLLPCLPLATAAPTRHPIHIKDGDWNEFRRKLTFYLKTLEAIF
notes: as for B1
relative antagonistic potential (relative receptor binding activity / relative biological activity) (IL-3 receptor [4]): 1.8
binding activity retained (IL-3 receptor [3]): 100 percent
REL. SPEC. BIOLOGICAL ACTIVITY (DNA synthesis of AML193 cells) (IL-3 receptor [2]): 2 relative to reference IL-3

The remaining lines, values ahead:

binding result (IL-3 receptor [1]): no binding
REL. SPEC. BIOLOGICAL ACTIVITY (DNA synthesis of AML193 cells) (IL-3 receptor [2]): 6.6e-05 relative to reference IL-3
B2: hIL-3 deletion mutant 938 (deletion 103-111) (ligand)
chain: B1 chain with D94R, W95H, N96P, E97I, F98H, R99I, R100K, K101D, L102G
notes: as for B1

binding result (IL-3 receptor [1]): no binding
REL. SPEC. BIOLOGICAL ACTIVITY (DNA synthesis of AML193 cells) (IL-3 receptor [2]): 6.4e-06 relative to reference IL-3
B3: hIL-3 deletion mutant 936 (deletion 76-83) (ligand)
chain: APMTQTTPLKTSWVNCSNMIDEIITHLKQPPLPLLDFNNLNGEDQDILMENNLRRPNLEAFNRAVKSLQNASAIECLPLATAAPTRHPIHIKDGDWNEFRRKLTFYLKTLENAQAQQTTLSLAIF
notes: as for B1

binding result (IL-3 receptor [1]): no binding
REL. SPEC. BIOLOGICAL ACTIVITY (DNA synthesis of AML193 cells) (IL-3 receptor [2]): 1e-05 relative to reference IL-3
B5: hIL-3 deletion mutant 937 (deletion 89-95) (ligand)
chain: APMTQTTPLKTSWVNCSNMIDEIITHLKQPPLPLLDFNNLNGEDQDILMENNLRRPNLEAFNRAVKSLQNASAIESILKNLLPCLPLAPIHIKDGDWNEFRRKLTFYLKTLENAQAQQTTLSLAIF
notes: as for B1

binding result (IL-3 receptor [1]): no binding
REL. SPEC. BIOLOGICAL ACTIVITY (DNA synthesis of AML193 cells) (IL-3 receptor [2]): 2.4e-05 relative to reference IL-3
B6: hIL-3 deletion mutant 813 (deletion 66-80) (ligand)
chain: APMTQTTPLKTSWVNCSNMIDEIITHLKQPPLPLLDFNNLNGEDQDILMENNLRRPNLEAFNRAVLLPCLPLATAAPTRHPIHIKDGDWNEFRRKLTFYLKTLENAQAQQTTLSLAIF
notes: also called 4813; not shown: heterologous N-terminal leader of the E. coli fusion (pGB/IL-336: 12 aa; pGB/IL-339: 15 aa)

binding result (IL-3 receptor [1]): no binding
REL. SPEC. BIOLOGICAL ACTIVITY (DNA synthesis of AML193 cells) (IL-3 receptor [2]): 7.3e-05 relative to reference IL-3
B7: hIL-3 deletion mutant 934 (deletion 47-54) (ligand)
chain: APMTQTTPLKTSWVNCSNMIDEIITHLKQPPLPLLDFNNLNGEDQDRPNLEAFNRAVKSLQNASAIESILKNLLPCLPLATAAPTRHPIHIKDGDWNEFRRKLTFYLKTLENAQAQQTTLSLAIF
notes: as for B1

binding result (IL-3 receptor [1]): no binding
REL. SPEC. BIOLOGICAL ACTIVITY (DNA synthesis of AML193 cells) (IL-3 receptor [2]): 1.1e-05 relative to reference IL-3
B16: hIL-3 deletion mutant 820 (deletion 85-90) (ligand)
chain: APMTQTTPLKTSWVNCSNMIDEIITHLKQPPLPLLDFNNLNGEDQDILMENNLRRPNLEAFNRAVKSLQNASAIESILKNLLPCAPTRHPIHIKDGDWNEFRRKLTFYLKTLENAQAQQTTLSLAIF
notes: as for B1

binding result (IL-3 receptor [1]): no binding
REL. SPEC. BIOLOGICAL ACTIVITY (DNA synthesis of AML193 cells) (IL-3 receptor [2]): 1.2e-05 relative to reference IL-3
B17: hIL-3 deletion mutant 935 (deletion 60-70) (ligand)
chain: APMTQTTPLKTSWVNCSNMIDEIITHLKQPPLPLLDFNNLNGEDQDILMENNLRRPNLEASAIESILKNLLPCLPLATAAPTRHPIHIKDGDWNEFRRKLTFYLKTLENAQAQQTTLSLAIF
notes: as for B1
